Where “and” joins values, the source holds several entries; their conditions need not be identical. Equal values may be shown once.
How the values were obtained:
[1] = test system: Cse4(CENP-A)-GFP (Saccharomyces cerevisiae (W303, SBY3 derivative)); test: single-molecule TIRFM endpoint colocalization; settings: yeast whole cell extract, single-molecule TIRFM on surface-tethered DNA, buffer, salt, pH and temperature not given in the material
[2] = test system: histone H3 (Saccharomyces cerevisiae (W303, SBY3 derivative)); test: single-molecule TIRFM endpoint colocalization; settings: yeast whole cell extract, single-molecule TIRFM on surface-tethered DNA, buffer, salt, pH and temperature not given in the material
[3] = test system: Scm3(HJURP) (Saccharomyces cerevisiae (W303, SBY3 derivative)); test: single-molecule TIRFM residence assay; settings: yeast whole cell extract, single-molecule TIRFM on surface-tethered DNA; buffer, salt, pH and temperature not given in the material
[4] = test system: Cse4(CENP-A)-GFP (Saccharomyces cerevisiae (W303, SBY3 derivative)); test: single-molecule TIRFM endpoint colocalization; settings: yeast whole cell extract, single-molecule TIRFM on surface-tethered DNA; buffer, salt, pH and temperature not given in the material
[5] = test system: Ndc10-mCherry (CBF3 component) (Saccharomyces cerevisiae (W303, SBY3 derivative)); test: single-molecule TIRFM endpoint colocalization; settings: WT extract; yeast whole cell extract, single-molecule TIRFM on surface-tethered DNA; buffer, salt, pH and temperature not given in the material

| Substance | binding signal (% DNA colocalized) ([1]; WT extract) | binding signal (% DNA colocalized) [1] | binding signal (% DNA colocalized) ([2]; low level) | further results |
| --- | --- | --- | --- | --- |
| CEN9 DNA | 22 |  |  |  |
| CEN7 DNA | 18 |  |  |  |
| Widom-601 DNA |  |  |  | binding signal (% DNA colocalized) [2]: 7.1 |
| Widom-601-CDEIII hybrid |  | 3.1 | 4.1 |  |
| alpha-sat CEN DNA |  | 1.7 |  |  |
| CEN3 DNA (WT, ~750 bp) | 50 | 19.3 | 5.5 | binding signal (residences per DNA (45 min)) [3]: 0.57; binding signal (% DNA colocalized) [4]: 5 and 8; binding signal (% DNA colocalized) [5]: 70 |

— publication PMC10476280
